Reference: patent publication US20220119534A1 (DRAGONFLY THERAPEUTICS, published 2022)
Positions count from the first letter of the chain named. In names and notes the source's numbering stands. Several values for one entry are separate records, joined by “and”; a condition that tells them apart may be missing. Equal entries are not always repeated.

What was measured:
[1] = target: T1, mFc-hNKG2D (human, UniProt P26718 73-216); assay: SPR Biacore 8K 37 C; mFc-hNKG2D captured on anti-mFc chip, TriNKET as analyte; 1:1 kinetic fit; pH 8.0 control
T1 construct: extracellular domain; Made in house (Dragonfly Tx); the order of tag and ECD follows the name mFc-hNKG2D; also called mFc-tagged human NKG2D; not shown: mouse Fc tag
T1 sequence (looked up): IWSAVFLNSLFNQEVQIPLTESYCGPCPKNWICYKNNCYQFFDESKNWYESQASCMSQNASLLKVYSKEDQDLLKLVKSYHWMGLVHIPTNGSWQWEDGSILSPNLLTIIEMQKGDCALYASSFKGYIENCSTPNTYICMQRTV

[2] = target: T1, mFc-hNKG2D; assay: SPR Biacore 8K 37 C; mFc-hNKG2D captured on anti-mFc chip, TriNKET as analyte; steady state fit; after 2 wks 40 C at pH 5.0
[3] = target: T2, Human CD16a V158 (FcγRIIIa V158) (human, UniProt P08637 17-208, biotinylated (site not stated)); assay: SPR; biotinylated CD16a V158 captured on SA chip, TriNKET as analyte; 1:1 kinetic fit; after 4 wks 40 C in phosphate/citrate/NaCl pH 7.8
T2 construct: V158 is the allele name in mature numbering; also called hCD16aV; hCD16a V158

[4] = target: T3, Human CLEC12A-His (recombinant, K244 WT) (human, UniProt Q5QGZ9 65-265); assay: SPR, two-state fit (kd1)
T3 construct: Made in house (Dragonfly Tx); also called hCLEC12A; hCLEC12A-His; not shown: His tag
T3 sequence: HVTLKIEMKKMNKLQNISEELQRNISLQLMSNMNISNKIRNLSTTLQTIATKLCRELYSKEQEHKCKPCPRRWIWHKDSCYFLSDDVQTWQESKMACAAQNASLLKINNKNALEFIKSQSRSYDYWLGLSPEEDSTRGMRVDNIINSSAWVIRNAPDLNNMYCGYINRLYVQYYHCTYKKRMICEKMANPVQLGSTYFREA

[5] = target: T4, mFc-hNKG2D (recombinant mFc-tagged human NKG2D dimer) (human, UniProt P26718 73-216); assay: SPR; after 4 wks 40C in HST pH 6.0
T4 construct: extracellular domain; Made in house; not shown: mouse Fc tag
T4 sequence (looked up): T1 sequence (looked up)

[6] = target: T5, Human CD16a V158 (FcγRIIIa V158) (human, UniProt P08637 17-208, biotinylated); assay: SPR; after 4 wks 40C in HST pH 6.0
T5 construct: Bought recombinant receptor; also called hCD16aV; hFcγRIIIa V158

[7] = target: T6, Human CD16b (FcγRIIIb) (human, UniProt O75015 17-200, limits assumed, biotinylated); assay: SPR 25C, biotinylated CD16b captured
T6 construct: Bought recombinant receptor; also called hFcγRIIIb; CD16b (FcγR3b)

[8] = target: T3, Human CLEC12A-His (recombinant, K244 WT); assay: SPR 37C, two-state fit (kd1), average
[9] = target: T3, Human CLEC12A-His (recombinant, K244 WT); assay: SPR, untreated CLEC12A, two-state fit
[10] = target: T7, Human CD64 (FcγRI) (human, UniProt P12314 16-288, biotinylated); assay: SPR 25C, biotinylated hCD64 captured on CAP chip
T7 construct: Bought recombinant receptor; also called hFcγRI; Human FcγRI

[11] = target: T3, Human CLEC12A-His (recombinant, K244 WT); assay: SPR, two-state fit; after 4 wks 40C in CST pH 7.0
[12] = target: T8, Human CD32a H131 (human, UniProt P12318 36-218, limits assumed, biotinylated); assay: SPR, steady state fit
T8 construct: Bought recombinant receptor; also called hFcγRIIa H131
T8 sequence (looked up): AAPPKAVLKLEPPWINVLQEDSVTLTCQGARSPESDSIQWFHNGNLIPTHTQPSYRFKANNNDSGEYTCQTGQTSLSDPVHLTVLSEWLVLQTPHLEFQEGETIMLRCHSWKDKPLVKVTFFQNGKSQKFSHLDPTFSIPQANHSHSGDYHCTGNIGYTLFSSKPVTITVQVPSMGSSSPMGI

[13] = target: T9, Human CD32a R131 (human, UniProt P12318 36-218, limits assumed, biotinylated); assay: SPR, steady state fit
T9 construct: Bought recombinant receptor; also called hFcγRIIa R131
T9 sequence (looked up): T8 sequence (looked up) with H132R

[14] = target: T10, Human CD16b (human, UniProt O75015 17-200, limits assumed, biotinylated); assay: SPR, steady state fit
T10 construct: Bought recombinant receptor; also called hFcγRIIIb

[15] = target: T11, mFc-hNKG2D (human, UniProt P26718 73-216); assay: SPR, 37 C, mFc-hNKG2D captured, 1:1 kinetic fit
T11 construct: extracellular domain; Recombinant mFc-tagged NKG2D dimer, made in house; also called human NKG2D; not shown: mouse Fc tag
T11 sequence (looked up): T1 sequence (looked up)

[16] = target: T12, recombinant human FcRn (human, UniProt P55899 24-297; P61769 21-119); assay: SPR 25C, pH 6.0, steady state; pH 6.0; third replicate
T12 construct: also called hFcRn

[17] = target: T13, recombinant cynomolgus FcRn (cynomolgus monkey, UniProt Q8SPV9 24-297; Q8SPW0 21-119); assay: SPR 25C, pH 6.0, steady state; pH 6.0; second replicate
T13 construct: also called cFcRn; cyno FcRn
T13 sequence (Q8SPV9 24-297 limits assumed, chain 1 of 2): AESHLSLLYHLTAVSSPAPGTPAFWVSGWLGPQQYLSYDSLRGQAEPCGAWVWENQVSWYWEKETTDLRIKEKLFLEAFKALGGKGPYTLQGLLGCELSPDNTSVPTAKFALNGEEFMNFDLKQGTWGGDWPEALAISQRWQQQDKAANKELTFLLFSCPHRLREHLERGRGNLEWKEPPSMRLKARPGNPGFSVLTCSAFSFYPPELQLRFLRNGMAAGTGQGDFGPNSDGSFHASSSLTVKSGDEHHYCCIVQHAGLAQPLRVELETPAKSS
T13 sequence (Q8SPW0 21-119 limits assumed, chain 2 of 2): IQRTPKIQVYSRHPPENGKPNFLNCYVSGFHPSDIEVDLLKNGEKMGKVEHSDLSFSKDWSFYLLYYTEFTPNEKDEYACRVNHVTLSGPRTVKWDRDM

T7 sequence (P12314 16-288 limits assumed): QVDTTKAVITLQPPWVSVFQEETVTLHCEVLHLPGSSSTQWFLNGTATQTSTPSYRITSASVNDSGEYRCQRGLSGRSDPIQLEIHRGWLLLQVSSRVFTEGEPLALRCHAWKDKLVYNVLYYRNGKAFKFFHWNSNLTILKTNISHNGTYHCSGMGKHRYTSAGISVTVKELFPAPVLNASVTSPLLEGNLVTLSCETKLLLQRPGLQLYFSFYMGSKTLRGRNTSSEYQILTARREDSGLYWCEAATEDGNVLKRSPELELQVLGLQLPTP
T2 sequence (P08637 17-208 F176V limits assumed): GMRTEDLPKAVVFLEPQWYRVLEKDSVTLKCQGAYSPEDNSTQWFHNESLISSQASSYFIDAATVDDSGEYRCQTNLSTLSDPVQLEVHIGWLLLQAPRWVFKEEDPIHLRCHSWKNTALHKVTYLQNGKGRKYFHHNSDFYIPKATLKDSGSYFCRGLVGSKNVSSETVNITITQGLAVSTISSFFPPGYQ
T5 sequence (P08637 17-208 F176V limits assumed): as above
T10 sequence (O75015 17-200 limits assumed): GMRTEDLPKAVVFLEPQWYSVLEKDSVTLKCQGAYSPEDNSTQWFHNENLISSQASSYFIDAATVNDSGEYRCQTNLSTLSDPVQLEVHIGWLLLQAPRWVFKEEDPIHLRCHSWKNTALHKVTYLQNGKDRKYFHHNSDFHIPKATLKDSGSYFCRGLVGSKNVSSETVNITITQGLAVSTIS
T6 sequence (O75015 17-200 limits assumed): as above
T12 sequence (P55899 24-297 limits assumed, chain 1 of 2): as the sequence (Q8SPV9 24-297 limits assumed, chain 1 of 2) above, with D39N, Q44E, S99G, G189S, N190S, M217L, T269S counted along it
T12 sequence (P61769 21-119 limits assumed, chain 2 of 2): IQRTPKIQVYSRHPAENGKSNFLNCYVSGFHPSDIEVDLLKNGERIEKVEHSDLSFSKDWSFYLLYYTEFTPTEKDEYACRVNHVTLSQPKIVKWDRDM

B1: F3'-1602 TriNKET (bispecific antibody, human IgG1, kappa)
chain: QLQLQESGPGLVKPSETLSLTCTVSGFSLTNYGLHWIRQPPGKCLEWIGVIWSGGKTDYNPSLKSRVTISKDTSKNQFSLKLSSVQAADTAVYYCAKYDYDDSLDYWGQGTLVTVSSGGGGSGGGGSGGGGSGGGGSDIQMTQSPSSLSASVGDRVTITCHASQNINFWLSWYQQKPGKAPKLLIYEASNLHTGVPSRFSGSGSGTRFTLTISSLQPEDIATYYCQQSHSYPLTFGCGTKLEIKGSDKTHTCPPCPAPELLGGPSVFLFPPKPKDTLMISRTPEVTCVVVDVSHEDPEVKFNWYVDGVEVHNAKTKPREEQYNSTYRVVSVLTVLHQDWLNGKEYKCKVSNKALPAPIEKTISKAKGQPREPRVYTLPPCRDELTKNQVSLTCLVKGFYPSDIAVEWESNGQPENNYKTTPPVLVSDGSFTLYSKLTVDKSRWQQGNVFSCSVMHEALHNHYTQKSLSLSPG
heavy: EVQLVESGGGLVKPGGSLRLSCAASGFTFSSYSMNWVRQAPGKGLEWVSSISSSSSYIYYADSVKGRFTISRDNAKNSLYLQMNSLRAEDTAVYYCARGAPIGAAAGWFDPWGQGTLVTVSSASTKGPSVFPLAPSSKSTSGGTAALGCLVKDYFPEPVTVSWNSGALTSGVHTFPAVLQSSGLYSLSSVVTVPSSSLGTQTYICNVNHKPSNTKVDKKVEPKSCDKTHTCPPCPAPELLGGPSVFLFPPKPKDTLMISRTPEVTCVVVDVSHEDPEVKFNWYVDGVEVHNAKTKPREEQYNSTYRVVSVLTVLHQDWLNGKEYKCKVSNKALPAPIEKTISKAKGQPREPQVCTLPPSRDELTENQVSLTCLVKGFYPSDIAVEWESNGQPENNYKTTPPVLDSDGSFFLYSWLTVDKSRWQQGNVFSCSVMHEALHNHYTQKSLSLSPG
light: DIQMTQSPSSVSASVGDRVTITCRASQGISSWLAWYQQKPGKAPKLLIYAASSLQSGVPSRFSGSGSGTDFTLTISSLQPEDFATYYCQQGVSFPRTFGGGTKVEIKRTVAAPSVFIFPPSDEQLKSGTASVVCLLNNFYPREAKVQWKVDNALQSGNSQESVTEQDSKDSTYSLSSTLTLSKADYEKHKVYACEVTHQGLSSPVTKSFNRGEC
notes: Trispecific F3' format: CLEC12A scFv-Fc paired with NKG2D Fab-Fc; Stressed and control samples of the stability studies are the same molecule; also called AB0237
[1]
  Kd: 694 nM
  koff: 0.125 s⁻¹
  kon: 180000 M⁻¹ s⁻¹
[2]
  Kd: 677 nM
[3]
  Kd: 216 nM
  koff: 0.0209 s⁻¹
  kon: 96700 M⁻¹ s⁻¹

B2: AB0089 TriNKET (bispecific antibody, human IgG1, kappa)
chain: B1 chain with S53V, K56A, K71V, Y98G, D101G, S103T, R207D, I220F
heavy: B1 heavy
light: B1 light
notes: F3' format heterodimer of three chains; human IgG1 Fc with EW-RVT and Y349C/S354C mutations; also called AB0089 Lot AB0089-002; CLEC12A TriNKET AB0089
[4]
  koff: 0.0398 s⁻¹
[5]
  Kd: 796 nM
  koff: 0.132 s⁻¹
  kon: 166000 M⁻¹ s⁻¹
[6]
  Kd: 359 nM
  koff: 0.0284 s⁻¹
  kon: 79300 M⁻¹ s⁻¹
[7]
  Kd: 10300 nM and 8800 nM and 7400 nM
[8]
  koff: 0.0435 s⁻¹
[9]
  Kd: 0.6 nM
[10]
  Kd: 6.4 nM and 4.7 nM and 4.1 nM and 5.2 nM
  koff: 0.00018 s⁻¹ and 0.00022 s⁻¹ and 0.00019 s⁻¹ and 0.00024 s⁻¹
  kon: 44000 M⁻¹ s⁻¹ and 46000 M⁻¹ s⁻¹
[11]
  Kd: 1 nM

B3: AB0192 TriNKET (other)
chain: EVQLVESGGGVVQPGGSLRLSCAASGFTFNAFGMHWVRQAPGKCLEWVAFISSGSTSIYYANTVKGRFTISRDNSKNTLYLQMNSLRAEDTAVYYCARDGYPTGGAMDYWGQGTSVTVSSGGGGSGGGGSGGGGSGGGGSDIQMTQSPSSLSASVGDRVTITCKASQDIYNYLSWFQQKPGKAPKPLIYRANILVSGVPSRFSGSGSGQDYTFTISSLQPEDIATYYCLQFDAFPFTFGCGTKLEIKGSDKTHTCPPCPAPELLGGPSVFLFPPKPKDTLMISRTPEVTCVVVDVSHEDPEVKFNWYVDGVEVHNAKTKPREEQYNSTYRVVSVLTVLHQDWLNGKEYKCKVSNKALPAPIEKTISKAKGQPREPRVYTLPPCRDELTKNQVSLTCLVKGFYPSDIAVEWESNGQPENNYKTTPPVLVSDGSFTLYSKLTVDKSRWQQGNVFSCSVMHEALHNHYTQKSLSLSPG
heavy: B1 heavy
light: B1 light
notes: the condition stands under assay; also called AB0192 Lot AB0192-005
[12]
  Kd: 1040 nM and 921 nM and 1070 nM and 1020 nM
[13]
  Kd: 1380 nM and 1290 nM and 1800 nM and 1130 nM
[14]
  Kd: 6800 nM and 6000 nM and 5300 nM
[15]
  koff: 0.143 s⁻¹ and 0.153 s⁻¹
  kon: 186000 M⁻¹ s⁻¹ and 196000 M⁻¹ s⁻¹ and 181000 M⁻¹ s⁻¹

B4: F3'-1602 TriNKET (other)
chain: B1 chain
heavy: B1 heavy
light: B1 light
notes: CLEC12A scFv-Fc, NKG2D A49MI Fab-Fc, human IgG1 Fc; also called AB0237
[16]
  Kd: 1500 nM
[17]
  Kd: 1100 nM
